Like-named read-outs stand apart in the source and are kept apart here. Square brackets hold non-standard residues; d marks the D form. Primed or numbered codes have the meaning given here. Ends that are not written are not given here. ACPC = cyclic β-residue replacing an α-residue; APC = 3-aminopyrrolidine-4-carboxylic acid; ACPC″ = not defined here; APC″ = not defined here; Aib = CC(C)(N)C(=O)O

Assay in all cases: cell-based or functional assay
Assay [1] addresses T1, human GLP-1 receptor (human, UniProt P43220 24-463).
For assay [2], the target named is T1, human GLP-1 receptor. This is another data set of the same source.
Assay [3] concerns the target T1, human GLP-1 receptor. This is another data set of the same source.

Regarding H[Aib]EGTFTSD[Aib]S[ACPC]YLE[ACPC]QAA[ACPC]EFI[ACPC]WLV[APC]GRG-NH2 [α/β-Peptide SEQ. ID. NO: 7], in the assay with human GLP-1 receptor [1], the “EC50 nM, cAMP production in HEK293 cells” value is 3.2 nM and the “Max Response (% GLP-1 max), cAMP production” value is 88 % GLP-1 max. For the same molecule, in the assay with human GLP-1 receptor [2], the “EC50 (nM), cAMP production” value was 3.2 nM; the “cAMP production, AVERAGES at M Concentrations: -7” value is 88.3; the “cAMP production, AVERAGES at M Concentrations: -8” value turned out to be 63; the “cAMP production, AVERAGES at M Concentrations: -9” value was 35. In the assay with human GLP-1 receptor [2], the “cAMP production, AVERAGES at M Concentrations: -10” value worked out at 4.47; the “cAMP production, AVERAGES at M Concentrations: -11” value was 3.5; the “cAMP production, AVERAGES at M Concentrations: -12” value came out at 2.81; the “cAMP production, AVERAGES at M Concentrations: -13” value turned out to be 3.83.

B1: SEQ. ID. NO: 13 (peptide)
peptide: HXEGTFTSDXSXYLEXQAAXEFIXWLVXGRG
modifications: C-terminal primary amide; non-natural residues are marked only by a key given as a drawing (CHEM-US-00002/00003), positions not readable in the text
Turning to B1, in the assay with human GLP-1 receptor [3], the “EC50 (nM), cAMP production” value is more than 100 nM.

For HAEGTFT[ACPC″]DVS[ACPC″]YLE[ACPC″]QAA[ACPC″]EFI[ACPC″]WLV[APC″]GRG-NH2 (reading uncertain) [α/β-peptide SEQ. ID. NO: 6], the “EC50 nM, cAMP production in HEK293 cells” value with human GLP-1 receptor [1] was more than 100 nM. Further, in the assay with human GLP-1 receptor [2], the “cAMP production, AVERAGES at M Concentrations: -7” value came to 100; the “cAMP production, AVERAGES at M Concentrations: -8” value amounted to 99.2; the “cAMP production, AVERAGES at M Concentrations: -9” value was found to be 42.8; the “cAMP production, AVERAGES at M Concentrations: -10” value was found to be 18. Also, in the assay with human GLP-1 receptor [2], the “cAMP production, AVERAGES at M Concentrations: -12” value is 5.69 and the “cAMP production, AVERAGES at M Concentrations: -13” value came to 5.69.

The values are drawn from US20170320928A1 (WISCONSIN ALUMNI RESEARCH FOUNDATION, published 2017).
